Paper PMC4100090, “A Simple Three-Step Method for Design and Affinity Testing of New Antisense Peptides: An Example of Erythropoietin” (International Journal of Molecular Sciences, 2014)

T1: Erythropoietin P2 epitope peptide (Homo sapiens)
T1 chain: LKLYTGEACRTGDR


What was measured:
[1] = circular dichroism spectroscopy; assay type: physicochemical; conditions: 1 mg/mL peptide, phosphate buffer 0.1 M, pH = 7.4, 25 °C, 1 cm cuvette, averages of five scans; negative peak around 200 nm
Experimental: The circular dichroism spectra were measured with Jasco J-815 CD spectrometer equipped with thermostated cell holder in a rectangular 1 cm cuvette (Jasco Inc., Easton, MD, USA). Conditions: concentration of peptides = 1 mg/mL, phosphate buffer = 0.1 M, pH = 7.4, temperature = 25 °C. Spectra are presented as averages of five scans, and corrected for buffer spectrum.

[2] = biological target: T1, Erythropoietin P2 epitope peptide; experiment: microscale thermophoresis
[3] = biological target: T1, Erythropoietin P2 epitope peptide; experiment: tryptophan fluorescence titration

Row | secondary structure by CD spectroscopy [1] | Kd [2] [µM] | Kd [3] [µM] | Molecule
1 | random coil structure | – | – | LKLYTGEACRTGDR
2 | – | 816 | 850 | DFDIWPLRTAWPLS [EPO-P2 antisense peptide]
